± gives the standard deviation of the averaged measurements.
The sequences below were run on ATP (assay: switch fluorescence ratio, 500 uM ATP over buffer (Cy3 cluster intensity, sum of 5 cycles each) (fold (ratio)); higher = stronger signal-on switching upon ATP binding; sequences stand for … in TCGTCGGCAGCGTCAGATGTGTATAAGAGACAGTTTTTTTTTTTTTTTTTTTTTTTTT…TC). Settings: aptamer strand: ATP DNA aptamer (quencher-CACCTGGGGGAGTATTGCGGAGGAAGG + anchor), 100 nM annealed; ATP concentration: 500 uM.
Procedure, shortened: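 Per cluster, summed Cy3 intensity from the target cycles was divided by that from the buffer cycles to give the fluorescence ratio, then averaged per switch-domain sequence. Clusters outside 100-1000 RFU were excluded. The Cy3-labelled switching-strand clusters, on a modified Illumina MiSeq flow-cell, were annealed to 100 nM quencher-labelled ATP aptamer and imaged in selection buffer, then after 15 min with 500 uM ATP at 22 °C, for five cycles with NaOH stripping and re-annealing between them.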
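Also: ATP exposure 15 min at 22 °C before imaging.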

| Sequence | switch fluorescence ratio |
| --- | --- |
| ATTATTTGAC | 1.08 ± 0.067 |
| GATGAAGTTG | 0.971 ± 0.029 |
| TTAACATGTT | 0.996 ± 0.022 |
| TGATTGGCTG | 1.02 ± 0.045 |
| CGCTTTACTA | 2.21 ± 0.07 |
| CGGGACGTGT | 0.969 ± 0.021 |
| TTTTTAGATT | 1.02 ± 0.031 |
| TGACATCGGG | 1.01 ± 0.033 |
| GCATCGTGCG | 1.01 ± 0.052 |
| GGGGTCGGGG | 1.03 ± 0.041 |
| AAGGTTGGTC | 1 ± 0.027 |
| AATATAATGT | 1.03 ± 0.021 |
| TACGGTGGGT | 0.982 ± 0.032 |
| AAGATTGAGC | 0.937 ± 0.022 |
| GAGACGTTTT | 0.97 ± 0.015 |
| TGTGATAGTT | 0.999 ± 0.015 |
| GGGGCTCATA | 0.9876 ± 0.0072 |
| CAGTAGTTGC | 1.091 ± 0.0086 |
| GAAGAATTGT | 0.991 ± 0.038 |
| TTAATGGTAT | 1.02 ± 0.021 |
| CGTAGTTGG | 0.988 ± 0.049 |
| GAAATTAACT | 1.01 ± 0.033 |
| GGATTTTTAT | 0.999 ± 0.028 |
| GGTGTTGGAT | 1.01 ± 0.002 |
| TGTGACGGGG | 1.02 ± 0.035 |

| Sequence | switch fluorescence ratio |
| --- | --- |
| CGTTGGCACG | 0.997 ± 0.04 |
| TGGGCTAAGC | 1.03 ± 0.028 |
| TGGGGAGGGC | 1 ± 0.035 |
| GGAGGCGGTG | 1.048 ± 0.0039 |
| TTGCGACCTG | 1.05 ± 0.04 |
| ATTCGAATGT | 0.9994 ± 0.0013 |
| GGGGAGGAGG | 0.986 ± 0.0087 |
| AAGACGATGT | 0.995 ± 0.013 |
| TGCGTTTATT | 0.994 ± 0.015 |
| GCGTATATTA | 0.998 ± 0.036 |
| ATGGGAAGGC | 0.983 ± 0.026 |
| GGAACCTTGG | 1.023 ± 0.0094 |
| GGGAAATAGG | 1.01 ± 0.023 |
| TGCATACGGC | 1.04 ± 0.07 |
| AAGGGTGGAG | 0.996 ± 0.026 |
| TCGCCGTATG | 0.999 ± 0.018 |
| GTGTTTGCTA | 1.02 ± 0.032 |
| TTTCGTCTGG | 0.955 ± 0.062 |
| GGTCGCGGAT | 1.01 ± 0.019 |
| ATGTATTAAG | 0.98 ± 0.015 |
| TTTTGGAATT | 1.04 ± 0.16 |
| TACGTGGCTG | 1.05 ± 0.073 |
| GGGGAAGAGA | 0.96964 ± 5.5e-05 |
| AAAAATAGTG | 1.036 ± 0.0098 |
| CGAGGTTATT | 1 ± 0.037 |

| Sequence | switch fluorescence ratio |
| --- | --- |
| GGGTATCGTA | 1.01 ± 0.018 |
| GCGGTCCGTT | 0.9614 ± 0.0012 |
| AATCTTGTGT | 0.985 ± 0.027 |
| GGTTCTCAGG | 1.02 ± 0.011 |
| AAATGGCATT | 1 ± 0.033 |
| TTGGGTGCAG | 1.016 ± 0.0075 |
| TTTCGCATGA | 1.223 ± 0.006 |
| ATTATGTGTC | 0.959 ± 0.048 |
| AGGAAAAAGG | 0.974 ± 0.034 |
| AAATGTTTGG | 1.01 ± 0.017 |
| ACGCGGTTTT | 1.02 ± 0.027 |
| AATGGCGCGA | 1.02 ± 0.054 |
| AGGTAAATTA | 0.9982 ± 0.0076 |
| ATGGCGATCA | 0.999 ± 0.0078 |
| TCTTGCCGCT | 1.01 ± 0.061 |
| TTACCTTTGT | 1.05 ± 0.024 |
| GATTTTGGAC | 1.031 ± 0.0078 |
| ACGGGTTCCA | 1.08 ± 0.13 |
| TGTAGGGGCA | 0.99 ± 0.014 |
| TTGGCACGGG | 1.03 ± 0.022 |
| TCAAACTGGT | 1.03 ± 0.028 |
| TGAAATTGGA | 0.999 ± 0.015 |
| CTGGGCTTAG | 0.982 ± 0.037 |
| CGCCTCGGGC | 1.02 ± 0.016 |
| TGTTGGGGGT | 0.962 ± 0.034 |

| Sequence | switch fluorescence ratio |
| --- | --- |
| ATTTGGGTTA | 1.01 ± 0.019 |
| TTTCCGTTGG | 1.12 ± 0.17 |
| AGGATGAATA | 0.9974 ± 0.0019 |
| TTTTGGAGTA | 1.02 ± 0.047 |
| AGGGTTAGCA | 1.02 ± 0.021 |
| AAGTTGTATT | 0.9974 ± 0.0019 |
| TTTTTTGTGT | 0.991 ± 0.03 |
| GGAAATGGCG | 0.981 ± 0.1 |
| TAGTTACTTT | 1.02 ± 0.021 |
| TTTGATTTAC | 1 ± 0.028 |
| TATCGGTCCG | 1.01 ± 0.024 |
| GTGGGGAAAA | 0.994 ± 0.035 |
| CGCATGTCGA | 1.03 ± 0.025 |
| GGAATTGTCC | 1.44 ± 0.69 |
| GAGATTCGCC | 1.02 ± 0.054 |
| GGCGAGGGCT | 0.982 ± 0.051 |
| TAAATGTCAT | 0.998 ± 0.027 |
| AACGGACGCT | 1.16 ± 0.064 |
| TGGGGTTGTA | 1.01 ± 0.056 |
| GATTCTCGGG | 1.01 ± 0.016 |
| TTGGATGTAA | 1 ± 0.036 |
| TAGTTTTCAG | 1.02 ± 0.047 |
| CGGGTGTCAC | 1.06 ± 0.024 |
| GCAGTTTGTT | 0.978 ± 0.019 |
| TGGTCGTGGG | 1.01 ± 0.032 |

| Sequence | switch fluorescence ratio |
| --- | --- |
| AGTTTTGGGT | 0.967 ± 0.02 |
| AAAAGTTCGT | 0.983 ± 0.024 |
| GGGGCTTTAT | 0.992 ± 0.013 |
| CTGCGGCTGT | 1.02 ± 0.0053 |
| TTCAGCTACA | 1.02 ± 0.029 |
| GGGAATGTAG | 1.01 ± 0.018 |
| AGGGCAGGGT | 0.975 ± 0.018 |
| TCAAAGTTGG | 1.01 ± 0.022 |
| GAGGATAGGG | 0.9768 ± 0.0037 |
| GCTAGATGTA | 1.02 ± 0.015 |
| CTATCGGTGA | 0.9767 ± 0.0019 |
| CGGGGGTGTA | 0.995 ± 0.026 |
| GATAGTGAAT | 0.962 ± 0.028 |
| GGACATGTAG | 0.965 ± 0.024 |
| TAAGTAGAG | 0.9824 ± 0.0097 |
| AAAAGAATAT | 1 ± 0.019 |
| AGTGTATATG | 1.1 ± 0.099 |
| TAATCGTGGA | 1.03 ± 0.022 |
| ACCTTGGTTG | 0.9609 ± 0.0054 |
| TACGAGGTTG | 1 ± 0.02 |
| TTATAGAAGA | 1.01 ± 0.0082 |
| TTTTTACAGG | 1.13 ± 0.16 |
| GTTTATTGTT | 1 ± 0.047 |
| GGGGATAGT | 1 ± 0.015 |
| TATTAAGTAT | 1.01 ± 0.019 |

| Sequence | switch fluorescence ratio |
| --- | --- |
| AAGTACAGGC | 1.27 ± 0.12 |
| GACGAAGTTT | 1.32 ± 0.7 |
| CAAGGCTTGA | 0.974 ± 0.022 |
| GACTCTGGGA | 1.11 ± 0.027 |
| GGAATGTCGG | 0.962 ± 0.051 |
| CATATGTGCG | 0.992 ± 0.023 |
| CAGCTAGGTG | 1.54 ± 0.029 |
| TGTTTACAGC | 0.997 ± 0.027 |
| GGTCGGGACC | 0.998 ± 0.033 |
| GCGGGGAAAT | 0.971 ± 0.021 |
| CGGTTGGGTA | 0.977 ± 0.014 |
| CCGAGGTTTT | 1.33 ± 0.22 |
| AGTGTTTAAG | 1.036 ± 0.009 |
| GGATTCCGGC | 0.981 ± 0.053 |
| CAATTATTAG | 0.988 ± 0.017 |
| TTTATTGAGC | 0.989 ± 0.039 |
| GGCTAATGGG | 1.021 ± 0.0043 |
| CGTTTGGGGG | 0.987 ± 0.021 |
| TTTTTGGTCG | 0.993 ± 0.086 |
| TATTTCCTGT | 0.993 ± 0.011 |
| GCTATTGGTA | 1.01 ± 0.03 |
| TATGTAGTAG | 0.971 ± 0.042 |
| AGAGGGACAT | 1.09 ± 0.1 |
| TTAGCGGGAT | 1.01 ± 0.044 |
| TACTCGCCGT | 1.053 ± 0.0064 |

| Sequence | switch fluorescence ratio |
| --- | --- |
| TTTTTAGGCA | 1 ± 0.042 |
| CCAAGGTGGA | 1.1 ± 0.12 |
| TTGAGCAAGT | 1.14 ± 0.075 |
| AGGTCCGACG | 0.967 ± 0.041 |
| CTGGTTCAGG | 1.026 ± 0.0082 |
| TGGGAAAAGG | 1.16 ± 0.31 |
| GGATTAATCG | 1 ± 0.015 |
| TAAGTGTAAA | 0.986 ± 0.013 |
| CTCTGGCGTT | 1.51 ± 0.66 |
| TTAGGTCATG | 0.9877 ± 0.0034 |
| GTCAGAGCTA | 1.01 ± 0.025 |
| AGGGTGGTGT | 0.976 ± 0.039 |
| CAATGTGCAG | 0.98804 ± 5.9e-06 |
| CCGTCTAATA | 1.42 ± 0.49 |
| CGCTTTAGTG | 1.01 ± 0.014 |
| TTCCCCCCAA | 1.76 ± 0.74 |
| TCGGTCCTTT | 0.99 ± 0.029 |
| GCGGTTTCAT | 0.9984 ± 0.0098 |
| GGTATGGCGC | 0.986 ± 0.058 |
| TTTGCAGACA | 1.01 ± 0.027 |
| TTATGGGCAA | 1.1 ± 0.02 |
| CTTGCCGCGC | 1.13 ± 0.017 |
| ACGTAGTTTG | 1.04 ± 0.033 |
| GTGGGGGGAT | 0.999 ± 0.023 |
| GAATTAAATT | 1.01 ± 0.018 |

| Sequence | switch fluorescence ratio |
| --- | --- |
| CAATCTTGGG | 0.97144 ± 0.00089 |
| GAAGGGATGC | 1.26 ± 0.073 |
| TTTCGAATTG | 0.975 ± 0.019 |
| GGGCAGATAT | 1.02 ± 0.017 |
| GATTTGTGTG | 0.978 ± 0.034 |
| TGGGTGGGAT | 1.002 ± 0.009 |
| TGGTTGGATG | 1.003 ± 0.006 |
| ATGGCAGCTG | 0.9949 ± 0.0095 |
| TTTTGGATGT | 0.984 ± 0.048 |
| ATTAGGAGTC | 0.999 ± 0.012 |
| GTTTTTCGGG | 0.981 ± 0.034 |
| TATGTGGGAA | 1.01 ± 0.062 |
| GCTCAACTAA | 1.02 ± 0.02 |
| GAGGAGCTGT | 0.999 ± 0.026 |
| GCCGGATTGA | 1.02 ± 0.041 |
| AGCAGTGGAC | 1.23 ± 0.016 |
| AAGAAGTGTA | 1.006 ± 0.0083 |
| TGAAAAATTG | 0.985 ± 0.053 |
| ACGGTATTGG | 1.09 ± 0.044 |
| TATTTCGTGG | 0.985 ± 0.024 |
| AGACTTGTTA | 0.971 ± 0.021 |
| TTCAGGTACT | 1.06 ± 0.019 |
| GTTAGTAGTG | 0.952 ± 0.022 |
| GGGCTGTAAG | 0.997 ± 0.04 |
| GGCGTAGTTA | 0.985 ± 0.018 |

Source: the supplement of paper PMC10126150
